Sequences and labels used below:
B1: Cullin-9, residues 2234 to 2275; numbered along this chain, Q8IWT3 (parent)
chain: KRCPSCQAPIEKNEGCLHMTCAKCNHGFCWRCLKSWKPNHKD

± gives the uncertainty stated by the source.

Variants of B1 are the subject of the series. Kind of series: abundance fitness (aPCA) (normalised: wild type 0, dead -1); higher = more abundant; growth selection in yeast, the domain comes from the species named. As to conditions: Homo sapiens.
Take KRCPSCQAPITKNEGCLHMTCAKCNHGFCWRCLKSWKPNHKD [E11T]: the abundance fitness was -0.159 ± 0.15.

KRCPSCQAPIMKNEGCLHMTCAKCNHGFCWRCLKSWKPNHKD [E11M]: the abundance fitness is -0.383 ± 0.13.

In the case of KRCPSCQAPIPKNEGCLHMTCAKCNHGFCWRCLKSWKPNHKD [E11P], the abundance fitness is -0.309 ± 0.17.

As for KRCPSCQAPISKNEGCLHMTCAKCNHGFCWRCLKSWKPNHKD [E11S], the abundance fitness is -0.41 ± 0.12.

Regarding KRCPSCQAPIVKNEGCLHMTCAKCNHGFCWRCLKSWKPNHKD [E11V], the abundance fitness was -0.408 ± 0.1.

With KRCPSCQAPIGKNEGCLHMTCAKCNHGFCWRCLKSWKPNHKD [E11G], the abundance fitness is -0.34 ± 0.079.

In the case of KRCPSCQAPIKKNEGCLHMTCAKCNHGFCWRCLKSWKPNHKD [E11K], the abundance fitness was -0.27 ± 0.12.

With KRCPSCQAPIQKNEGCLHMTCAKCNHGFCWRCLKSWKPNHKD [E11Q], the abundance fitness was -0.448 ± 0.33.

Consider KRCPSCQAPIHKNEGCLHMTCAKCNHGFCWRCLKSWKPNHKD [E11H], for which the abundance fitness was -0.138 ± 0.3.

Regarding KRCPSCQAPIDKNEGCLHMTCAKCNHGFCWRCLKSWKPNHKD [E11D], the abundance fitness was -0.137 ± 0.2.

Take KRCPSCQAPILKNEGCLHMTCAKCNHGFCWRCLKSWKPNHKD [E11L]: the abundance fitness was -0.318 ± 0.095.

As to KRCPSCQAPICKNEGCLHMTCAKCNHGFCWRCLKSWKPNHKD [E11C], the abundance fitness is -0.487 ± 0.16.

With KRCPSCQAPIAKNEGCLHMTCAKCNHGFCWRCLKSWKPNHKD [E11A], the abundance fitness is -0.185 ± 0.14.

As to KRCPSCQAPIWKNEGCLHMTCAKCNHGFCWRCLKSWKPNHKD [E11W], the abundance fitness was -0.069 ± 0.14.

Regarding KRCPSCQAPIYKNEGCLHMTCAKCNHGFCWRCLKSWKPNHKD [E11Y], the abundance fitness was determined as 0.319 ± 0.45.

In the case of KRCPSCQAPIEKDEGCLHMTCAKCNHGFCWRCLKSWKPNHKD [N13D], the abundance fitness was -0.209 ± 0.13.

Consider KRCPSCQAPIEKAEGCLHMTCAKCNHGFCWRCLKSWKPNHKD [N13A], for which the abundance fitness was -0.071 ± 0.074.

For the variant KRCPSCQAPIEKGEGCLHMTCAKCNHGFCWRCLKSWKPNHKD [N13G], the abundance fitness is -0.059 ± 0.07.

For the variant KRCPSCQAPIEKFEGCLHMTCAKCNHGFCWRCLKSWKPNHKD [N13F], the abundance fitness is -0.36 ± 0.17.

In the case of KRCPSCQAPIEKCEGCLHMTCAKCNHGFCWRCLKSWKPNHKD [N13C], the abundance fitness was -0.101 ± 0.15.

Turning to KRCPSCQAPIEKEEGCLHMTCAKCNHGFCWRCLKSWKPNHKD [N13E], the abundance fitness is -0.002 ± 0.1.

Consider KRCPSCQAPGEKNEGCLHMTCAKCNHGFCWRCLKSWKPNHKD [I10G], for which the abundance fitness is -0.303 ± 0.081.

As for KRCPSCQAPKEKNEGCLHMTCAKCNHGFCWRCLKSWKPNHKD [I10K], the abundance fitness was -0.598 ± 0.16.

Regarding KRCPSCQAPDEKNEGCLHMTCAKCNHGFCWRCLKSWKPNHKD [I10D], the abundance fitness was -0.011 ± 0.09.

As to KRCPSCQAPPEKNEGCLHMTCAKCNHGFCWRCLKSWKPNHKD [I10P], the abundance fitness was -0.536 ± 0.17.

KRCPSCQAPTEKNEGCLHMTCAKCNHGFCWRCLKSWKPNHKD [I10T]: the abundance fitness is -0.083 ± 0.1.

Turning to KRCPSCQAPEEKNEGCLHMTCAKCNHGFCWRCLKSWKPNHKD [I10E], the abundance fitness is 0.059 ± 0.13.

For the variant KRCPSCQAPNEKNEGCLHMTCAKCNHGFCWRCLKSWKPNHKD [I10N], the abundance fitness was -0.534 ± 0.21.

Turning to KRCPSCQAPAEKNEGCLHMTCAKCNHGFCWRCLKSWKPNHKD [I10A], the abundance fitness was -0.193 ± 0.11.

KRCPSCQAPQEKNEGCLHMTCAKCNHGFCWRCLKSWKPNHKD [I10Q]: the abundance fitness is -0.231 ± 0.12.

In the case of KRCPSCQAPVEKNEGCLHMTCAKCNHGFCWRCLKSWKPNHKD [I10V], the abundance fitness is -0.138 ± 0.085.

As to KRCPSCQAPSEKNEGCLHMTCAKCNHGFCWRCLKSWKPNHKD [I10S], the abundance fitness was -0.233 ± 0.095.

Consider KRCPSCQAPHEKNEGCLHMTCAKCNHGFCWRCLKSWKPNHKD [I10H], for which the abundance fitness is -0.588 ± 0.18.

For KRCPSCQAPWEKNEGCLHMTCAKCNHGFCWRCLKSWKPNHKD [I10W], the abundance fitness was -0.555 ± 0.1.

For the variant KRCPSCQAPREKNEGCLHMTCAKCNHGFCWRCLKSWKPNHKD [I10R], the abundance fitness is -0.534 ± 0.089.

In the case of KRCPSCQAYIEKNEGCLHMTCAKCNHGFCWRCLKSWKPNHKD [P9Y], the abundance fitness is -0.265 ± 0.18.

As to KRCPSCQANIEKNEGCLHMTCAKCNHGFCWRCLKSWKPNHKD [P9N], the abundance fitness was -0.026 ± 0.26.

For the variant KRCPSCQAMIEKNEGCLHMTCAKCNHGFCWRCLKSWKPNHKD [P9M], the abundance fitness was 0.056 ± 0.1.

Take KRCPSCQARIEKNEGCLHMTCAKCNHGFCWRCLKSWKPNHKD [P9R]: the abundance fitness was -0.048 ± 0.087.

As to KRCPSCQAKIEKNEGCLHMTCAKCNHGFCWRCLKSWKPNHKD [P9K], the abundance fitness is -0.349 ± 0.15.

KRCPSCQATIEKNEGCLHMTCAKCNHGFCWRCLKSWKPNHKD [P9T]: the abundance fitness was -0.107 ± 0.12.

For the variant KRCPSCQALIEKNEGCLHMTCAKCNHGFCWRCLKSWKPNHKD [P9L], the abundance fitness was -0.39 ± 0.089.

For the variant KRCPSCQAWIEKNEGCLHMTCAKCNHGFCWRCLKSWKPNHKD [P9W], the abundance fitness worked out at 0.335 ± 0.14.

Turning to KRCPSCQASIEKNEGCLHMTCAKCNHGFCWRCLKSWKPNHKD [P9S], the abundance fitness was -0.347 ± 0.095.

On to KRCPSCQAQIEKNEGCLHMTCAKCNHGFCWRCLKSWKPNHKD [P9Q], for which the abundance fitness was 0.014 ± 0.1.

Take KRCPSCQAVIEKNEGCLHMTCAKCNHGFCWRCLKSWKPNHKD [P9V]: the abundance fitness was -0.277 ± 0.098.

On to KRCPSCQAPIEHNEGCLHMTCAKCNHGFCWRCLKSWKPNHKD [K12H], for which the abundance fitness was -0.151 ± 0.2.

As to KRCPSCQAPIEFNEGCLHMTCAKCNHGFCWRCLKSWKPNHKD [K12F], the abundance fitness was -0.469 ± 0.38.

As for KRCPSCQAPIEINEGCLHMTCAKCNHGFCWRCLKSWKPNHKD [K12I], the abundance fitness is -0.492 ± 0.23.

Regarding KRCPSCQAPIESNEGCLHMTCAKCNHGFCWRCLKSWKPNHKD [K12S], the abundance fitness was -0.112 ± 0.085.

On to KRCPSCQAPIEYNEGCLHMTCAKCNHGFCWRCLKSWKPNHKD [K12Y], for which the abundance fitness is -0.152 ± 0.17.

Turning to KRCPSCQAPIEDNEGCLHMTCAKCNHGFCWRCLKSWKPNHKD [K12D], the abundance fitness was -0.248 ± 0.12.

KRCPSCQAPIEVNEGCLHMTCAKCNHGFCWRCLKSWKPNHKD [K12V]: the abundance fitness is -0.2 ± 0.089.

In the case of KRCPSCQAPIEPNEGCLHMTCAKCNHGFCWRCLKSWKPNHKD [K12P], the abundance fitness was determined as 0.057 ± 0.081.

For KRCPSCQAPIEQNEGCLHMTCAKCNHGFCWRCLKSWKPNHKD [K12Q], the abundance fitness came to 0.008 ± 0.091.

Regarding KRCPSCQAPIEANEGCLHMTCAKCNHGFCWRCLKSWKPNHKD [K12A], the abundance fitness stood at 0.126 ± 0.081.

For KRCPSCQAPIEGNEGCLHMTCAKCNHGFCWRCLKSWKPNHKD [K12G], the abundance fitness worked out at 0.268 ± 0.071.

Regarding KRCPSCQAPIELNEGCLHMTCAKCNHGFCWRCLKSWKPNHKD [K12L], the abundance fitness is -0.201 ± 0.081.

KRCPSCQAPIETNEGCLHMTCAKCNHGFCWRCLKSWKPNHKD [K12T]: the abundance fitness was -0.046 ± 0.095.

With KRCPSCQAPIEMNEGCLHMTCAKCNHGFCWRCLKSWKPNHKD [K12M], the abundance fitness was -0.22 ± 0.12.

For the origin of these results see the Human Domainome abundance scans (Beltran et al. 2025).
